{"source": "the supplement of paper PMC5998384", "key": {"[1]": {"system": "HeLa Kyoto", "test": "melting temperature (median over replicates), in situ; higher = more thermally stable"}, "[2]": {"system": "HeLa Kyoto", "test": "solubility change mitosis vs G1/S (difference of NP-40 vs SDS log2 ratios) (log2 ratio difference); higher = more soluble in mitosis"}, "[3]": {"system": "HeLa Kyoto", "test": "solubility in G1/S (NP-40 vs SDS abundance) (log2 ratio); higher = more soluble", "conditions": "cell cycle stage: G1/S"}, "[4]": {"system": "HeLa Kyoto", "test": "thermal stability score vs G1/S (z-score of summed log2 fold changes over temperatures); higher = more thermally stable than in G1/S"}, "[5]": {"conditions": "cell cycle stage: early G1 (4.5 h after nocodazole release)"}}}
{"substance": "MAAAAGDADDEPRSGHSSSEGECAVAPEPLTDAEGLFSFADFGSALGGGGAGLSGRASGGAQSPLRYLHVLWQQDAEPRDELRCKIPAGRLRRAARPHRRLGPTGKEVHALKRLRDSANANDVETVQQLLEDGADPCAADDKGRTALHFASCNGNDQIVQLLLDHGADPNQRDGLGNTPLHLAACTNHVPVITTLLRGGARVDALDRAGRTPLHLAKSKLNILQEGHAQCLEAVRLEVKQIIHMLREYLERLGQHEQRERLDDLCTRLQMTSTKEQVDEVTDLLASFTSLSLQMQSMEKR [ANKRD54]", "values": [{"measurement": "melting temperature", "setting": "[1]; cell cycle stage: G1/S", "result": 51, "unit": "°C"}, {"measurement": "solubility change mitosis (log2)", "setting": "[2]", "result": -0.169}, {"measurement": "solubility in G1/S (log2)", "setting": "[3]", "result": 0.0925}, {"measurement": "thermal stability score", "setting": "[4]; [5]", "result": 0.324}, {"measurement": "thermal stability score", "setting": "[4]; cell cycle stage: mitosis", "result": 3.1}]}
{"substance": "MESGQPARRIAMAPLLEYERQLVLELLDTDGLVVCARGLGADRLLYHFLQLHCHPACLVLVLNTQPAEEEYFINQLKIEGVEHLPRRVTNEITSNSRYEVYTQGGVIFATSRILVVDFLTDRIPSDLITGILVYRAHRIIESCQEAFILRLFRQKNKRGFIKAFTDNAVAFDTGFCHVERVMRNLFVRKLYLWPRFHVAVNSFLEQHKPEVVEIHVSMTPTMLAIQTAILDILNACLKELKCHNPSLEVEDLSLENAIGKPFDKTIRHYLDPLWHQLGAKTKSLVQDLKILRTLLQYLSQYDCVTFLNLLESLRATEKAFGQNSGWLFLDSSTSMFINARARVYHLPDAKMSKKEKISEKMEIKEGEETKKELVLESNPKWEALTEVLKEIEAENKESEALGGPGQVLICASDDRTCSQLRDYITLGAEAFLLRLYRKTFEKDSKAEEVWMKFRKEDSSKRIRKSHKRPKDPQNKERASTKERTLKKKKRKLTLTQMVGKPEELEEEGDVEEGYRREISSSPESCPEEIKHEEFDVNLSSDAAFGILKEPLTIIHPLLGCSDPYALTRVLHEVEPRYVVLYDAELTFVRQLEIYRASRPGKPLRVYFLIYGGSTEEQRYLTALRKEKEAFEKLIREKASMVVPEEREGRDETNLDLVRGTASADVSTDTRKAGGQEQNGTQQSIVVDMREFRSELPSLIHRRGIDIEPVTLEVGDYILTPEMCVERKSISDLIGSLNNGRLYSQCISMSRYYKRPVLLIEFDPSKPFSLTSRGALFQEISSNDISSKLTLLTLHFPRLRILWCPSPHATAELFEELKQSKPQPDAATALAITADSETLPESEKYNPGPQDFLLKMPGVNAKNCRSLMHHVKNIAELAALSQDELTSILGNAANAKQLYDFIHTSFAEVVSKGKGKK [ERCC4]", "values": [{"measurement": "melting temperature", "setting": "[1]; cell cycle stage: G1/S", "result": 49.6, "unit": "°C"}, {"measurement": "melting temperature", "setting": "[1]; cell cycle stage: mitosis", "result": 50.4, "unit": "°C"}, {"measurement": "solubility change mitosis (log2)", "setting": "[2]", "result": -0.274}, {"measurement": "solubility in G1/S (log2)", "setting": "[3]", "result": -0.215}, {"measurement": "thermal stability score", "setting": "[4]; [5]", "result": 0.278}, {"measurement": "thermal stability score", "setting": "[4]; cell cycle stage: mitosis", "result": 0.608}]}
{"substance": "TJP1", "values": [{"measurement": "melting temperature", "setting": "[1]; cell cycle stage: G1/S", "result": 49.3, "unit": "°C"}, {"measurement": "melting temperature", "setting": "[1]; cell cycle stage: mitosis", "result": 50.3, "unit": "°C"}, {"measurement": "solubility change mitosis (log2)", "setting": "[2]", "result": 0.126}, {"measurement": "solubility in G1/S (log2)", "setting": "[3]", "result": -0.366}, {"measurement": "thermal stability score", "setting": "[4]; [5]", "result": -0.423}, {"measurement": "thermal stability score", "setting": "[4]; cell cycle stage: mitosis", "result": 1.4}]}
{"substance": "SPTAN1", "values": [{"measurement": "melting temperature", "setting": "[1]; cell cycle stage: G1/S", "result": 53, "unit": "°C"}, {"measurement": "melting temperature", "setting": "[1]; cell cycle stage: mitosis", "result": 51.5, "unit": "°C"}, {"measurement": "solubility change mitosis (log2)", "setting": "[2]", "result": 0.485}, {"measurement": "solubility in G1/S (log2)", "setting": "[3]", "result": -0.956}, {"measurement": "thermal stability score", "setting": "[4]; [5]", "result": -0.312}, {"measurement": "thermal stability score", "setting": "[4]; cell cycle stage: mitosis", "result": -1.93}]}
{"substance": "MLALISRLLDWFRSLFWKEEMELTLVGLQYSGKTTFVNVIASGQFSEDMIPTVGFNMRKVTKGNVTIKIWDIGGQPRFRSMWERYCRGVNAIVYMIDAADREKIEASRNELHNLLDKPQLQGIPVLVLGNKRDLPNALDEKQLIEKMNLSAIQDREICCYSISCKEKDNIDITLQWLIQHSKSRRS [ARL8B]", "values": [{"measurement": "melting temperature", "setting": "[1]; cell cycle stage: G1/S", "result": 55.2, "unit": "°C"}, {"measurement": "melting temperature", "setting": "[1]; cell cycle stage: mitosis", "result": 56, "unit": "°C"}, {"measurement": "solubility change mitosis (log2)", "setting": "[2]", "result": -0.232}, {"measurement": "solubility in G1/S (log2)", "setting": "[3]", "result": -0.0397}, {"measurement": "thermal stability score", "setting": "[4]; [5]", "result": -1.93}, {"measurement": "thermal stability score", "setting": "[4]; cell cycle stage: mitosis", "result": -1.85}]}
{"substance": "NCOR1", "values": [{"measurement": "melting temperature", "setting": "[1]; cell cycle stage: G1/S", "result": 48.5, "unit": "°C"}, {"measurement": "melting temperature", "setting": "[1]; cell cycle stage: mitosis", "result": 52.2, "unit": "°C"}, {"measurement": "solubility change mitosis (log2)", "setting": "[2]", "result": 0.0133}, {"measurement": "solubility in G1/S (log2)", "setting": "[3]", "result": -0.0922}, {"measurement": "thermal stability score", "setting": "[4]; [5]", "result": 0.817}, {"measurement": "thermal stability score", "setting": "[4]; cell cycle stage: mitosis", "result": 5.94}]}
{"substance": "MATANGAVENGQPDRKPPALPRPIRNLEVKFTKIFINNEWHESKSGKKFATCNPSTREQICEVEEGDKPDVDKAVEAAQVAFQRGSPWRRLDALSRGRLLHQLADLVERDRATLAALETMDTGKPFLHAFFIDLEGCIRTLRYFAGWADKIQGKTIPTDDNVVCFTRHEPIGVCGAITPWNFPLLMLVWKLAPALCCGNTMVLKPAEQTPLTALYLGSLIKEAGFPPGVVNIVPGFGPTVGAAISSHPQINKIAFTGSTEVGKLVKEAASRSNLKRVTLELGGKNPCIVCADADLDLAVECAHQGVFFNQGQCCTAASRVFVEEQVYSEFVRRSVEYAKKRPVGDPFDVKTEQGPQIDQKQFDKILELIESGKKEGAKLECGGSAMEDKGLFIKPTVFSEVTDNMRIAKEEIFGPVQPILKFKSIEEVIKRANSTDYGLTAAVFTKNLDKALKLASALESGTVWINCYNALYAQAPFGGFKMSGNGRELGEYALAEYTEVKTVTIKLGDKNP [ALDH1A3]", "values": [{"measurement": "melting temperature", "setting": "[1]; cell cycle stage: G1/S", "result": 55.4, "unit": "°C"}, {"measurement": "melting temperature", "setting": "[1]; cell cycle stage: mitosis", "result": 57.5, "unit": "°C"}, {"measurement": "solubility change mitosis (log2)", "setting": "[2]", "result": -0.0783}, {"measurement": "solubility in G1/S (log2)", "setting": "[3]", "result": 0.122}, {"measurement": "thermal stability score", "setting": "[4]; [5]", "result": -0.893}, {"measurement": "thermal stability score", "setting": "[4]; cell cycle stage: mitosis", "result": -0.266}]}
